These results are taken from patent EP4762086.

This experiment deals with MUC5AC antigen (human, UniProt P98088). As to the kind of experiment: SPR. Background: Surface plasmon resonance follows binding to a sensor surface in real time, without labels.

Several values for one entry are separate records, joined by “and”; a condition that tells them apart may be missing. Equal values may be shown once.

B1: NEO-102 (Ensituximab) (antibody, V domains shown)
VH: QVQLKESGPDLVAPSQSLSITCTVSGFELSKFGVIWVRQPPGKGLEWLGVIWGDGSTVYNSKLISRLSISKENSKSQVFLKLNSLQADDTATYYCVKPGGDYWGHGTSVTVSS
VL: QVVLTQSPVIMSASPGEKVTMTCSASSSISYMYWYQQKPGTSPKRWIYDTSKLGSGVPARFSGSGSGTSYSLTISNMEAGDAATYYCHQRDSYPWTFGGGTNLEIK
The term Kd denotes the equilibrium constant for the complex coming apart. Read a low Kd as higher affinity. As to B1, the dissociation constant (Kd) is 7.38 nM and 5.6 nM.
